From patent US20230265187A1 (published 2023) come the findings set out here.

The labels stand for the following.
B1: 43586p2.D05 (scFv, V domains shown)
VH: EVQLLESGGGLVQPGGSLRLSCAASGFTFDDYVMSWVRQAPGKGLEWVSLINWNGDKTYYADSVKGRFTISRDNSKNTLYLQMNSLRAEDTAVYYCARHWIVFQYGLDIWGQGTTVTVSS
VL: QSVLTQPLSASGTPGQRVTISCSGVSSNIEIKYVSWYQQLPGTAPKLLIYNSHQRPSGVPDRFSGSKSGTSASLAISGLQSEDEADYYCTSWDDRLKSWVFGGGTKLTVL
B2: 43586p2.F02 (scFv, V domains shown)
VH: B1 VH with F103L, I109V
VL: B1 VL
B3: 43586p2.E08 (scFv, V domains shown)
VH: B1 VH with G10D, G66D, I109V
VL: B1 VL
B4: 43586p2.F11 (scFv, V domains shown)
VH: B1 VH with S7L, G10S, I109V
VL: B1 VL with R17K
B5: 43586p1.1.H8 (scFv, V domains shown)
VH: EVQLLESGGGLVQPGGSLRLSCAASGFTFIDFWMSWVRQAPGKGLEWVSAISWIGDTYYYADSVKGRFTVSRDNSKNTVYLQMNSLRAEDTAVYYCAKHWTVYQYGMDVWGQGTTVTVSS
VL: QSVLTQPPSASGTPGQRVIISCSGSTSDIETKYVSWYQQLPGTAPKLLIYGNHQRPSGVPDRFSGSKSGTSASLAISGLQSEDEADYYCTAWDNTLKSWVFGGGTKLTVL
B6: 43645p1.G5 (scFv, V domains shown)
VH: EVQLLESGGGLVQPGGSLRLSCAASGFTFSSYYMSWVRQAPGKGLEWVSAISIFSGDSTYYADSVKGRFTISRDNSKNTLYLQMNSLRAEDTAVYYCAKSHTVLQYGMDVWGQGTTVTVSS
VL: QSVLTQPPSASGTPGQRVTISCSGVTSNIRNYYVSWYQQLPGTAPKLLIYGNDQRPSGVPDRFSGSKSGTSASLAISGLQSEDEADYYCGTWDNTLNAWVFGGGTKLTVL
B7: 43586p1.2.E6 (scFv, V domains shown)
VH: EVQLLESGGGLVQPGGSLRLSCAASGFTVSDHYMSWVRQAPGKGLEWVSTTSSTSWKNYTYYADSVKGRFSISRDNSENTLYLQMNGLRAEDTAVYYCAKGSYGMDVWGQGTTVTVSS
VL: QSVLTQPPSASGTPGQRVTISCSGSNFNIGTKYLYWYQQLPGTAPKLLIYLDSQRPSGVPDRFSTSKSGTSASLAISGLQSEDEADYYCALWDDHLHGWVFGGGTKLTVL
B8: 43586p2.G01 (scFv, V domains shown)
VH: B7 VH with D31S, H32N, Y33W, T54S, K57N, S71T, E78K, G87S
VL: B7 VL with F27S, T31A, D52N, S53D, Q54R, T65G, L91F, H97K
B9: 43586p2.D01 (scFv, V domains shown)
VH: B7 VH with D31S, H32N, Y33W, T54S, K57N, S71T, E78K, G87S
VL: B7 VL with F27S, T31A, D52N, S53D, T65G, L91F, H97K
B10: 43586p2.H02 (scFv, V domains shown)
VH: EVQLLESGGGLVQPGGSLRLSCATSGFTVSDHYVSWVRQAPGKGLEWVSTSSSTNWNDGRTYYADSVKGRFTISRDNSENTLYLQMNSLRAEDTAVYYCAKGSYGMDVWGQGTTVTVSS
VL: B7 VL with G24A, F27S, N28Y, L34F, T65G, A72V, L91F
B11: 43586p1.2.F6 (scFv, V domains shown)
VH: EVQLLESGEGLVQPGGSLRLSCAASGFTFTSYLMSWVRQAPGKGLEWVSTITWDGDRTYYADSVKGRFTISRDNSKNTLYLQMNSLRVGDTAVYYCAKHWTVFQYGMDVWGQGTTVTVSS
VL: B5 VL with P8A, I19T, S25T, T26I, D28N, T90A, A91S, D93E, T95D
notes: Tested as scFv-Fc supernatant; also called 43586p1.2.F06

Substitutions are numbered along the chain they refer to.

T1 sequence (A0A7N9I9V4 entry or part of it): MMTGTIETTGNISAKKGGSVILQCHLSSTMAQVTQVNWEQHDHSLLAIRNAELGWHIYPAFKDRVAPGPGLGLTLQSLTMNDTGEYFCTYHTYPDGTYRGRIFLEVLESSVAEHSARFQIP

One test addresses T1, His-tagged cynomolgus monkey TIGIT (Acro Biosystems #TIT-05223) (cynomolgus monkey, UniProt A0A7N9I9V4 89-209).
T1 construct: Bought protein; also called cyno TIGIT; cynomolgus TIGIT; not shown: His tag
Kind of test: ELISA, coated His-TIGIT, 1 ug/ml.
As for B1, the “Elisa OD450” value came out at 1.73 OD450.

For the molecule B2, the “Elisa OD450” value was 1.77 OD450.

With B3, the “Elisa OD450” value worked out at 1.87 OD450.

Take B4: the “Elisa OD450” value worked out at 1.92 OD450.

For B5, the “Elisa OD450” value worked out at 1.25 OD450.

B6: the “Elisa OD450” value was determined as 1.73 OD450.

Consider B7, for which the “Elisa OD450” value was determined as 0.776 OD450.

Consider B8, for which the “Elisa OD450” value amounted to 1.15 OD450.

Regarding B9, the “Elisa OD450” value was determined as 1.61 OD450.

As for B10, the “Elisa OD450” value was determined as 1.09 OD450.

The next test deals with T2, his-tagged murine TIGIT (Acro Biosystems #TIT-M52E6) (murine, UniProt P86176 29-148, limits assumed).
T2 construct: Bought protein; also called mouse his-tagged TIGIT; not shown: his tag
T2 sequence (looked up): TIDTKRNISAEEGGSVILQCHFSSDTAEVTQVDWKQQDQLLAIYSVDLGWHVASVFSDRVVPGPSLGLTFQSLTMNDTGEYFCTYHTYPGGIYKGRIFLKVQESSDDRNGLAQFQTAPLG
Kind of test: ELISA, coated His-TIGIT, 1 ug/ml.
In the case of B1, the “Elisa OD450” value is 1.67 OD450.

For B2, the “Elisa OD450” value is 1.9 OD450.

As for B3, the “Elisa OD450” value turned out to be 2.03 OD450.

Regarding B4, the “Elisa OD450” value came out at 1.93 OD450.

Consider B5, for which the “Elisa OD450” value worked out at 0.048 OD450.

Regarding B6, the “Elisa OD450” value was 1.01 OD450.

Regarding B7, the “Elisa OD450” value amounted to 2.01 OD450.

As to B8, the “Elisa OD450” value turned out to be 1.95 OD450.

For the molecule B9, the “Elisa OD450” value was 1.66 OD450.

In the case of B10, the “Elisa OD450” value came to 1.93 OD450.

A further test deals with T3, his-tagged human TIGIT (Acro Biosystems #TIT-H52H3) (human, UniProt Q495A1 22-141).
T3 construct: Bought protein; also called His-tagged-TIGIT (human); not shown: his tag
T3 sequence (looked up): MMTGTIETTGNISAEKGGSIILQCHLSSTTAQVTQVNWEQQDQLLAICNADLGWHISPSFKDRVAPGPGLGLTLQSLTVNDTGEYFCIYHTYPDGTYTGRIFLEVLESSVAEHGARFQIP
Kind of test: ELISA, coated His-TIGIT, 1 ug/ml.
As to B1, the “Elisa OD450” value was found to be 1.92 OD450.

For B2, the “Elisa OD450” value was found to be 1.85 OD450.

With B3, the “Elisa OD450” value was 1.46 OD450.

For the molecule B4, the “Elisa OD450” value stood at 1.98 OD450.

In the case of B5, the “Elisa OD450” value was found to be 1.93 OD450.

For the molecule B6, the “Elisa OD450” value worked out at 1.94 OD450.

With B7, the “Elisa OD450” value stood at 1.82 OD450.

As to B8, the “Elisa OD450” value was found to be 2.03 OD450.

As for B9, the “Elisa OD450” value turned out to be 1.95 OD450.

Take B10: the “Elisa OD450” value is 2 OD450.

Another test addresses T4, human TIGIT on Jurkat cells (TIGIT/NFAT reporter Jurkat cells, BPS Bioscience #60538); Promega TIGIT Effector … (human, UniProt Q495A1 22-244).
T4 sequence (looked up): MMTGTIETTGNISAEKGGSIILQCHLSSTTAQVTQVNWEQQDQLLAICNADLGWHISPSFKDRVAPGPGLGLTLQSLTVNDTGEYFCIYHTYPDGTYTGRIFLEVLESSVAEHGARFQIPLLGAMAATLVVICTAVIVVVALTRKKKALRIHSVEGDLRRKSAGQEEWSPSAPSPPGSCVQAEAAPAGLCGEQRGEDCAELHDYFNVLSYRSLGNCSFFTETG
The test is described as follows: cell-based or functional assay.
Turning to B1, the “max. signal (% of 22G2)” value was 118 % of 22G2.

Take B2: the “max. signal (% of 22G2)” value is 92 % of 22G2.

For B3, the “max. signal (% of 22G2)” value was 117 % of 22G2.

In the case of B4, the “max. signal (% of 22G2)” value is 104 % of 22G2.

For the molecule B5, the “max. signal (% of 22G2)” value is 124 % of 22G2.

On to B6, for which the “max. signal (% of 22G2)” value is 99 % of 22G2.

B7: the “max. signal (% of 22G2)” value is 97 % of 22G2.

In the case of B8, the “max. signal (% of 22G2)” value is 110 % of 22G2.

For the molecule B9, the “max. signal (% of 22G2)” value was 103 % of 22G2.

Consider B10, for which the “max. signal (% of 22G2)” value was 80 % of 22G2.

A further test has as its target T4, human TIGIT on Jurkat cells (TIGIT/NFAT …). The test is described as follows: flow cytometry, TIGIT/NFAT Jurkat cells, 10 ug/ml. (Flow cytometry measures light scatter and fluorescence of single cells or particles in a stream.)
Turning to B1, the MFI turned out to be 9960 MFI.

The molecule B2 yielded an MFI of 8960 MFI.

B3 had an MFI of 11300 MFI.

As for B4, the MFI amounted to 9200 MFI.

In turn, B5 returned an MFI of 9170 MFI.

Regarding B6, the MFI turned out to be 12400 MFI.

B7 registered an MFI of 10500 MFI.

For the molecule B8, the MFI came to 9720 MFI.

Take B9: the MFI was determined as 9990 MFI.

For B10, the MFI stood at 9130 MFI.

The next test has as its target T1, His-tagged cynomolgus monkey TIGIT …. The test is described as follows: SPR (Carterra LSA), scFv-Fc captured, His-TIGIT analyte; repeat. The protocol: (§1) Binding affinities of anti-TIGIT antibodies to human, cyno, and murine TIGIT were measured by Surface Plasmon Resonance (SPR) on a Carterra LSA instrument. Goat anti-human Fc antibody was amine coupled to a HC30M chip. ScFv-Fc supernatants were diluted 30-fold with HBSTE and were captured by the anti-human Fc coupled HC30M chip. A 1:2 dilution series of his-tagged human TIGIT, starting at 400 nM, was injected onto the chip for binding. A dilution series was also carried out for cyno TIGIT and murine TIGIT. Data were analyzed using the Carterra™ Kinetics software.
For the molecule B5, the Kd (usually the concentration at which binding is half-saturated) amounted to 16 nM.

In turn, B11 displayed an equilibrium dissociation constant (Kd) of 4.6 nM.

The molecule B6 showed a Kd of 0.368 nM.

The target is the same in a further test. Kind of test: SPR (Carterra LSA), scFv-Fc captured, His-TIGIT analyte. The procedure: as §1
B1 returned a Kd of 1.55 nM.

As to B2, the affinity, expressed as Kd, was 14.4 nM.

The molecule B3 had a Kd of 1.83 nM.

In turn, B4 came in with a Kd of 2.09 nM.

As for B5, the Kd stood at 31.6 nM.

B11 registered a Kd of 38.1 nM.

In turn, B7 returned a Kd of 564 nM.

As to B8, binding was put at a Kd of 339 nM.

In turn, B9 returned an equilibrium dissociation constant (Kd) of 29.1 nM.

B10 displayed a Kd of 334 nM.

Another test addresses T2, his-tagged murine TIGIT (Acro …). The test is described as above. The procedure: as §1
B1: the dissociation constant Kd was 5.46 nM.

In the case of B2, the affinity, expressed as Kd, was 96 nM.

With B3, the Kd amounted to 5.79 nM.

Take B4: the Kd was found to be 6.23 nM.

Molecule B7 returned a Kd of 3.07 nM.

In turn, B8 came in with a Kd of 1.65 nM.

B9: the dissociation constant Kd turned out to be 0.496 nM.

Consider B10, for which binding was characterised by a dissociation constant (Kd) of 3.94 nM.

Another test addresses T3, his-tagged human TIGIT (Acro Biosystems …). The description is as above. The procedure:
as §1
Regarding B1, the Kd is 0.214 nM.

Consider B2, for which the Kd turned out to be 1.81 nM.

B3 had a Kd of 0.252 nM.

In turn, B4 had a Kd of 0.307 nM.

In the case of B5, the dissociation constant Kd was 0.292 nM.

As to B11, the dissociation constant Kd turned out to be 0.223 nM.

Consider B6, for which the dissociation constant (Kd) turned out to be 0.0507 nM.

B7 yielded a Kd of 1.56 nM.

In turn, B8 came in with a Kd of 2.69 nM.

Take B9: binding was put at a Kd of 1.04 nM.

Molecule B10 came in with a Kd of 2.53 nM.
